In patent publication US20060228349A1 (published 2006):

T1: biotin-Aβ1-20 (biotin (position not given))
T1 peptide: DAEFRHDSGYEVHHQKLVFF

B1: 20C2-2A, affinity matured humanized 20C2, IgG1 humanized A version (antibody, V domains shown)
VH: QVTLKESGPALVKPTQTLTLTCTFSGFSLSTSGMGVGWIRQPPGKALEWLAHIWWDDDKSYNPSLKSRLTISKDTSKNQVVLTMTNMDPVDTATYYCARRQLGLRSIDAMDYWGQGTTVTVSS
VL: DVVMTQSPLSLPVTPGEPASISCRSSQSILHSNGNTYLEWYLQKPGQSPQLLIYKVSNRFSGVPDRFSGSGSGTDFTLKISRVEAEDVGVYYCFQATRVPLTFGQGTKLEIKR
notes: also called SJ-p1-18
B2: 20C2-9A, affinity matured humanized 20C2, IgG1 humanized A version (antibody, V domains shown)
VH: QVTLKESGPALVKPTQTLTLTCTFSGFSLSTSGMGVGWIRQPPGKALEWLAHIWWDDDKSYNPSLKSRLTISKDTSKNQVVLTMTNMDPVDTATYYCARRQLGLRSIDAMDYWGQGTTVTVSS
VL: DVVMTQSPLSLPVTPGEPASISCRSSQSILHSNGNTYLEWYLQKPGQSPQLLIYKVSNRFSGVPDRFSGSGSGTDFTLKISRVEAEDVGVYYCVQTSLVPLTFGQGTKLEIKR
notes: also called SJ-p2-51
B3: 20C2-12A Fab fragment (clone 4P1-32) (Fab, V domains shown)
VH: QVTLKESGPALVKPTQTLTLTCTFSGFSLSTSGMGVGWIRQPPGKALEWLAHIWWDDDKSYNPSLKSRLTISKDTSKNQVVLTMTNMDPVDTATYYCARRQLGLRSIDAMDYWGQGTTVTVSS
VL: DVVMTQSPLSLPVTPGEPASISCRSSQSILHSNGNTYLEWYLQKPGQSPQLLIYKVSNRFSGVPDRFSGSGSGTDFTLKISRVEAEDVGVYYCLQSSLVPLTFGQGTKLEIKR
B4: 20C2-8A, affinity matured humanized 20C2, IgG1 humanized A version (antibody, V domains shown)
VH: QVTLKESGPALVKPTQTLTLTCTFSGFSLSTSGMGVGWIRQPPGKALEWLAHIWWDDDKSYNPSLKSRLTISKDTSKNQVVLTMTNMDPVDTATYYCARRQLGLRSIDAMDYWGQGTTVTVSS
VL: DVVMTQSPLSLPVTPGEPASISCRSSQSILHSNGNTYLEWYLQKPGQSPQLLIYKVSNRFSGVPDRFSGSGSGTDFTLKISRVEAEDVGVYYCLQTTRVPLTFGQGTKLEIKR
notes: also called SJ-p2-39
B5: 20C2-13A Fab fragment (clone 4p1-20) (Fab, V domains shown)
VH: QVTLKESGPALVKPTQTLTLTCTFSGFSLSTSGMGVGWIRQPPGKALEWLAHIWWDDDKSYNPSLKSRLTISKDTSKNQVVLTMTNMDPVDTATYYCARRQLGLRSIDAMDYWGQGTTVTVSS
VL: DVVMTQSPLSLPVTPGEPASISCRSSQSILHSNGNTYLEWYLQKPGQSPQLLIYKVSNRFSGVPDRFSGSGSGTDFTLKISRVEAEDVGVYYCLQTSNVPLTFGQGTKLEIKR
B6: 20C2-1A Fab fragment (clone SJ-p2-60) (Fab, V domains shown)
VH: QVTLKESGPALVKPTQTLTLTCTFSGFSLSTSGMGVGWIRQPPGKALEWLAHIWWDDDKSYNPSLKSRLTISKDTSKNQVVLTMTNMDPVDTATYYCARRQLGLRSIDAMDYWGQGTTVTVSS
VL: DVVMTQSPLSLPVTPGEPASISCRSSQSILHSNGNTYLEWYLQKPGQSPQLLIYKVSNRFSGVPDRFSGSGSGTDFTLKISRVEAEDVGVYYCFQASRVPLTFGQGTKLEIKR
B7: 20C2-8A Fab fragment (clone SJ-p2-39) (Fab, V domains shown)
VH: QVTLKESGPALVKPTQTLTLTCTFSGFSLSTSGMGVGWIRQPPGKALEWLAHIWWDDDKSYNPSLKSRLTISKDTSKNQVVLTMTNMDPVDTATYYCARRQLGLRSIDAMDYWGQGTTVTVSS
VL: DVVMTQSPLSLPVTPGEPASISCRSSQSILHSNGNTYLEWYLQKPGQSPQLLIYKVSNRFSGVPDRFSGSGSGTDFTLKISRVEAEDVGVYYCLQTTRVPLTFGQGTKLEIKR
B8: 20C2-6A, affinity matured humanized 20C2, IgG1 humanized A version (antibody, V domains shown)
VH: QVTLKESGPALVKPTQTLTLTCTFSGFSLSTSGMGVGWIRQPPGKALEWLAHIWWDDDKSYNPSLKSRLTISKDTSKNQVVLTMTNMDPVDTATYYCARRQLGLRSIDAMDYWGQGTTVTVSS
VL: DVVMTQSPLSLPVTPGEPASISCRSSQSILHSNGNTYLEWYLQKPGQSPQLLIYKVSNRFSGVPDRFSGSGSGTDFTLKISRVEAEDVGVYYCFQSSRVPLTFGQGTKLEIKR
notes: also called 4P1-22
B9: 20C2-5A, affinity matured humanized 20C2, IgG1 humanized A version (antibody, V domains shown)
VH: QVTLKESGPALVKPTQTLTLTCTFSGFSLSTSGMGVGWIRQPPGKALEWLAHIWWDDDKSYNPSLKSRLTISKDTSKNQVVLTMTNMDPVDTATYYCARRQLGLRSIDAMDYWGQGTTVTVSS
VL: DVVMTQSPLSLPVTPGEPASISCRSSQSILHSNGNTYLEWYLQKPGQSPQLLIYKVSNRFSGVPDRFSGSGSGTDFTLKISRVEAEDVGVYYCFQSSFVPLTFGQGTKLEIKR
notes: also called SJ-p2-1F
B10: 20C2-5A Fab fragment (clone SJ-p2-1F) (Fab, V domains shown)
VH: QVTLKESGPALVKPTQTLTLTCTFSGFSLSTSGMGVGWIRQPPGKALEWLAHIWWDDDKSYNPSLKSRLTISKDTSKNQVVLTMTNMDPVDTATYYCARRQLGLRSIDAMDYWGQGTTVTVSS
VL: DVVMTQSPLSLPVTPGEPASISCRSSQSILHSNGNTYLEWYLQKPGQSPQLLIYKVSNRFSGVPDRFSGSGSGTDFTLKISRVEAEDVGVYYCFQSSFVPLTFGQGTKLEIKR
B11: 20C2-2A Fab fragment (clone SJ-p1-18) (Fab, V domains shown)
VH: QVTLKESGPALVKPTQTLTLTCTFSGFSLSTSGMGVGWIRQPPGKALEWLAHIWWDDDKSYNPSLKSRLTISKDTSKNQVVLTMTNMDPVDTATYYCARRQLGLRSIDAMDYWGQGTTVTVSS
VL: DVVMTQSPLSLPVTPGEPASISCRSSQSILHSNGNTYLEWYLQKPGQSPQLLIYKVSNRFSGVPDRFSGSGSGTDFTLKISRVEAEDVGVYYCFQATRVPLTFGQGTKLEIKR
B12: 20C2-7A Fab fragment (clone SJ-p2-27) (Fab, V domains shown)
VH: QVTLKESGPALVKPTQTLTLTCTFSGFSLSTSGMGVGWIRQPPGKALEWLAHIWWDDDKSYNPSLKSRLTISKDTSKNQVVLTMTNMDPVDTATYYCARRQLGLRSIDAMDYWGQGTTVTVSS
VL: DVVMTQSPLSLPVTPGEPASISCRSSQSILHSNGNTYLEWYLQKPGQSPQLLIYKVSNRFSGVPDRFSGSGSGTDFTLKISRVEAEDVGVYYCLNSTTVPLTFGQGTKLEIKR
B13: 20C2-18A Fab fragment (clone SJ-p1-9M) (Fab, V domains shown)
VH: QVTLKESGPALVKPTQTLTLTCTFSGFSLSTSGMGVGWIRQPPGKALEWLAHIWWDDDKSYNPSLKSRLTISKDTSKNQVVLTMTNMDPVDTATYYCARRQLGLRSIDAMDYWGQGTTVTVSS
VL: DVVMTQSPLSLPVTPGEPASISCRSSQSILHSNGNTYLEWYLQKPGQSPQLLIYKVSNRFSGVPDRFSGSGSGTDFTLKISRVEAEDVGVYYCMQSSFVPLTFGQGTKLEIKR
B14: 20C2-9A Fab fragment (clone SJ-p2-51) (Fab, V domains shown)
VH: QVTLKESGPALVKPTQTLTLTCTFSGFSLSTSGMGVGWIRQPPGKALEWLAHIWWDDDKSYNPSLKSRLTISKDTSKNQVVLTMTNMDPVDTATYYCARRQLGLRSIDAMDYWGQGTTVTVSS
VL: DVVMTQSPLSLPVTPGEPASISCRSSQSILHSNGNTYLEWYLQKPGQSPQLLIYKVSNRFSGVPDRFSGSGSGTDFTLKISRVEAEDVGVYYCVQTSLVPLTFGQGTKLEIKR

Legend:
[1] = biological target: T2, Biotinylated ADDL preparations (bADDLs) (N-terminal biotin); test: BIACORE, bADDL as antigen; column IgG1#2
T2 construct: Oligomer, number of copies not fixed; also called biotinylated ADDL antigen; high molecular weight 10% bADDL

biotin-Aβ1-20 [2] = biological target: T1, biotin-Aβ1-20; test: BIACORE, biotin-Aβ1-20 as antigen; column IgG1#2
biotin-Aβ1-20 [3] = biological target: T1, biotin-Aβ1-20; test: BIACORE, biotin-Aβ1-20 as antigen; column IgG1#1
[4] = biological target: T2, Biotinylated ADDL preparations (bADDLs); test: BIACORE, bADDL as antigen; column IgG1#1
[5] = biological target: T2, Biotinylated ADDL preparations (bADDLs); test: BIACORE, bADDL as antigen; column Fab
biotin-Aβ1-20 [6] = biological target: T1, biotin-Aβ1-20; test: BIACORE, biotin-Aβ1-20 as antigen; column Fab

Binder	Kd [1] [nM]	Kd (biotin-Aβ1-20 [2]) [nM]	Kd (biotin-Aβ1-20 [3]) [nM]	Kd [4] [nM]	Kd [5] [nM]	Kd (biotin-Aβ1-20 [6]) [nM]
B1	0.0003	2	0.686	0.015	–	–
B2	0.002	0.42	0.241	–	–	–
B3	–	–	–	–	238	617
B4	0.0007	0.376	0.14	0.003	–	–
B5	–	–	–	–	567	94
B6	–	–	–	–	85	91
B7	–	–	–	–	13	14
B8	0.024	0.714	0.544	0.0043	–	–
B9	0.068	1.5	0.912	0.317	–	–
B10	–	–	–	–	41	41
B11	–	–	–	–	28	28
B12	–	–	–	–	435	128
B13	–	–	–	–	85	126
B14	–	–	–	–	40	36
